In assay [1] the target is mTmc1 tagged with mRuby3 (mTmc1-mRuby3) (mouse) (UniProt Q8R4P5).
Assay [2] shares this target. The assay is described as follows: FRET or BRET; acceptor photobleaching in living N2A cells co-transfected with mPz1-mClover3 (donor) and mTmc1-mRuby3 (acceptor), Tyrode's solution pH 7.4, region of the surface membrane. For orientation: Bioluminescence resonance energy transfer reports proximity on the nanometre scale.

Chain of mTmc1 tagged with mRuby3 (mTmc1-mRuby3) (mouse) (Q8R4P5 whole entry): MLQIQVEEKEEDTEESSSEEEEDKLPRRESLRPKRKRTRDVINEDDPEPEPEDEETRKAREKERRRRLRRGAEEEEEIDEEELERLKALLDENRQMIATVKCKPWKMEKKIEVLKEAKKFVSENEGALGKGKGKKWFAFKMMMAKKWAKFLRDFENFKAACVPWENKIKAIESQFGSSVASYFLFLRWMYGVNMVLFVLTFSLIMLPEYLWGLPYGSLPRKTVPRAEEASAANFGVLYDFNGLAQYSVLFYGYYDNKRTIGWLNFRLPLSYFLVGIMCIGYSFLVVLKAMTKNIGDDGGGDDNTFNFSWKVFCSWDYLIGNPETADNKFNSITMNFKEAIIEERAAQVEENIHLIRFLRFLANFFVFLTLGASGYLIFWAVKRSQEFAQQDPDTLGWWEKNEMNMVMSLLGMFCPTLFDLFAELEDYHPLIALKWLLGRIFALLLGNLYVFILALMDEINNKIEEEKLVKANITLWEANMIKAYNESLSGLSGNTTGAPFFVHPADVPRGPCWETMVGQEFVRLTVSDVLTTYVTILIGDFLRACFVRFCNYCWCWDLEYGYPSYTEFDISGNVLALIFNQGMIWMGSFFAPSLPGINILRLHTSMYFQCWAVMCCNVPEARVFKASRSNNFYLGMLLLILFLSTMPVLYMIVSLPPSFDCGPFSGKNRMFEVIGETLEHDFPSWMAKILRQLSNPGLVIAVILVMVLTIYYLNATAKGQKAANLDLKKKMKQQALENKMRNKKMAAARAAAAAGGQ

Turning to “mouse Pz1 tagged with mClover3 (mPz1-mClover3), E2JF22 1-2547”, the block by dihydrostreptomycin (DHS) of the mechanically activated current in N2A cells co-transfected with Pz1 and Tmc1, against Pz1 alone in assay [1] worked out at 1000 fold. This substance also showed an FRET efficiency (E) in assay [2] of 0.1.

These data come from article PMC10371147.
